T1: AIMP1/p43 natively expressed in human cells (HeLa cell lysate) (human, UniProt Q12904 2-312, limits assumed)
T1 construct: Endogenous protein, denatured on a western blot; also called human 세포에서 원래 발현된 AIMP1/p43
T1 sequence (looked up): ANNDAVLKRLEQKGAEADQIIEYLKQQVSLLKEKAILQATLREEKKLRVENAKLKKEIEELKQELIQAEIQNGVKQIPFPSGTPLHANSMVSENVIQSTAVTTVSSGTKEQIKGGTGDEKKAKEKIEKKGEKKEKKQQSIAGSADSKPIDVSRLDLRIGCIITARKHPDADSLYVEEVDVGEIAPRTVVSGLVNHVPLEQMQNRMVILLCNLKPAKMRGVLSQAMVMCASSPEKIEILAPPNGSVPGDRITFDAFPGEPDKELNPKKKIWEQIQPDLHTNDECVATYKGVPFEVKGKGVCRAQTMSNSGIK

T2: Tyrosyl-tRNA synthetase (YRS) (UniProt P54577 1-528, limits assumed)
T2 construct: Recombinant antigen, purity above 90%, coupled to a Luminex bead; also called 타이로실-tRNA 합성효소
T2 sequence (looked up): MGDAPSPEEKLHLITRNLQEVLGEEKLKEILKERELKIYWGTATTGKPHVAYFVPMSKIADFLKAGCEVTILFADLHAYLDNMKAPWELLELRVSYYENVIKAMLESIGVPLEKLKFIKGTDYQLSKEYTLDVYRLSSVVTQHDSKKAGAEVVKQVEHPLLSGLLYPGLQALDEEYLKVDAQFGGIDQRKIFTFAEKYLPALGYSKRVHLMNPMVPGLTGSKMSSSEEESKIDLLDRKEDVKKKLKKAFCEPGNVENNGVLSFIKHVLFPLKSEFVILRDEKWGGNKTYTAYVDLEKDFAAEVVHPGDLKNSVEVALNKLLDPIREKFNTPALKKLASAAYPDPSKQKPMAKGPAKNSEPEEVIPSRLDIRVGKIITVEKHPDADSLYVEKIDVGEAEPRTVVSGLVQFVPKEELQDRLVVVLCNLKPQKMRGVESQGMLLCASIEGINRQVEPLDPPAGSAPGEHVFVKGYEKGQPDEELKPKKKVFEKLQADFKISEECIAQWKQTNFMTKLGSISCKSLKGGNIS

T3: Tryptophanyl-tRNA synthetase (WRS) (UniProt P23381 1-471, limits assumed)
T3 construct: Recombinant antigen, purity above 90%, coupled to a Luminex bead; also called 트립토파닐-tRNA 합성효소
T3 sequence (looked up): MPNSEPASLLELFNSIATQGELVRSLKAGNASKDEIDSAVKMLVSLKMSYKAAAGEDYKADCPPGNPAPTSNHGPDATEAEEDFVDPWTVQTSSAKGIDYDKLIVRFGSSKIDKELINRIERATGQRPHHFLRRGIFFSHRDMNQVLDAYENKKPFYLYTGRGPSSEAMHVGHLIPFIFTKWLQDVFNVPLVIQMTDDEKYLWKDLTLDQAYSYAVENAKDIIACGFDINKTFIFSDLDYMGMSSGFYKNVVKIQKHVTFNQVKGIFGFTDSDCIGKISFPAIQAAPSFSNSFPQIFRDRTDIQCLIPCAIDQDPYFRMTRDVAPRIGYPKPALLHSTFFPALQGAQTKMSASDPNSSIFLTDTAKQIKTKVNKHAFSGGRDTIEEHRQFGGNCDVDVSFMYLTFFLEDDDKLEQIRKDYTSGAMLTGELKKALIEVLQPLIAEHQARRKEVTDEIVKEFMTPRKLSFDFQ

T4: Asparaginyl-tRNA synthetase (NRS) (UniProt O43776 1-548, limits assumed)
T4 construct: Recombinant antigen, purity above 90%, coupled to a Luminex bead; also called 아스파라기닐딜-tRNA 합성효소
T4 sequence (looked up): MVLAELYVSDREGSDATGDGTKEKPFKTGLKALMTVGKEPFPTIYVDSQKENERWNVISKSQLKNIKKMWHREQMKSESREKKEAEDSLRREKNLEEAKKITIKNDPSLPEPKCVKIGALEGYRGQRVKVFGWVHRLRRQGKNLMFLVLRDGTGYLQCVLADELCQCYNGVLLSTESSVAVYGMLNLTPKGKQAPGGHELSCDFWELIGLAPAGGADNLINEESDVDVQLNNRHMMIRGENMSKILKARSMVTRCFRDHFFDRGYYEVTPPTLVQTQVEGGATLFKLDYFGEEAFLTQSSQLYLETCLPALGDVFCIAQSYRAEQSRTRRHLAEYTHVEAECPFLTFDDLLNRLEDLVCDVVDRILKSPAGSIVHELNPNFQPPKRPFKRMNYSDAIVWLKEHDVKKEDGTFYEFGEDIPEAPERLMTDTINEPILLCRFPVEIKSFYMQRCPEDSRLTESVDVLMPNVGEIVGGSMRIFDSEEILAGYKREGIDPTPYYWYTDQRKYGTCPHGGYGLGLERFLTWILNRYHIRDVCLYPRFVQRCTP

T5: Histidyl-tRNA synthetase (HRS) (UniProt P12081 1-509, limits assumed)
T5 construct: Recombinant antigen, purity above 90%, coupled to a Luminex bead; also called 히스티딜-tRNA 합성효소
T5 sequence (looked up): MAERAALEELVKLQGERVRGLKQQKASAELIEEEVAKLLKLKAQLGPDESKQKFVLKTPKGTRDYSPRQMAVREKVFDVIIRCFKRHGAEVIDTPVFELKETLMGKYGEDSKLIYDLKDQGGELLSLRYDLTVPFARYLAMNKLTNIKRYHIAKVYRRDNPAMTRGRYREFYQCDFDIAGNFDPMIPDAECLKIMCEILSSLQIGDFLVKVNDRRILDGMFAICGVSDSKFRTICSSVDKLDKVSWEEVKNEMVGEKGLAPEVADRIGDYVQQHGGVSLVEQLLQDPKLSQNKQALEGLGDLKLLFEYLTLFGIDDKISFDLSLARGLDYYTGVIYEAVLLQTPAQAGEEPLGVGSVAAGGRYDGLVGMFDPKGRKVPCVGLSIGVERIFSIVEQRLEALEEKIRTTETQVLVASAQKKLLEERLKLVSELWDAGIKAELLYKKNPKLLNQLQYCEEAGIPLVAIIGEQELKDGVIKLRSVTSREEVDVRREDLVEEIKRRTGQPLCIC

T6: Glycyl-tRNA synthetase (GRS) (UniProt P41250 55-739, limits assumed)
T6 construct: Recombinant antigen, purity above 90%, coupled to a Luminex bead; also called 글리실-tRNA 합성효소
T6 sequence (looked up): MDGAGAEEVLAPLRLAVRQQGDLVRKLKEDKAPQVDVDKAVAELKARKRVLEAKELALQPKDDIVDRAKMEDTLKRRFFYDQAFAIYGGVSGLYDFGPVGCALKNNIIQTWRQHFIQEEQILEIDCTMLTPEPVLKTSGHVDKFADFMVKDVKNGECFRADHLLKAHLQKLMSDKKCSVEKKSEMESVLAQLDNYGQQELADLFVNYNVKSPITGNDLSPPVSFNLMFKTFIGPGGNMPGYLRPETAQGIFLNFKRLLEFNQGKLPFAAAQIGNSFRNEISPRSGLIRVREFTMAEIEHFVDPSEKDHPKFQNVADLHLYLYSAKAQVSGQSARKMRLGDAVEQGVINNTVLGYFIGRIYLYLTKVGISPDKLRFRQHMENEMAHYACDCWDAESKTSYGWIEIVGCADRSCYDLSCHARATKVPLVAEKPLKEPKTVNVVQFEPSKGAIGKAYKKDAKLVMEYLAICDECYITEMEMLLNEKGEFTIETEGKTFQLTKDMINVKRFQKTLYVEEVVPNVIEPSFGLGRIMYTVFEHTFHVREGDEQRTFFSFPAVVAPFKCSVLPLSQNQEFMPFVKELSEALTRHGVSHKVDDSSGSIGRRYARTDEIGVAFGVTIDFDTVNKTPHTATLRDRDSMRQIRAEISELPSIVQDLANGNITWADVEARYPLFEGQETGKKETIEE

T7: recombinant AIMP1/p43 (ARS-interacting multifunctional protein 1) (human, UniProt Q12904 1-312, limits assumed)
T7 construct: Purified recombinant antigen used in SPR, on Luminex beads and as the ELISA standard; It calls the target human AIMP1/p43 in the summary and claims; also called AIMP1/p43 항원; 재조합 AIMP1/p43 표준물질
T7 sequence (looked up): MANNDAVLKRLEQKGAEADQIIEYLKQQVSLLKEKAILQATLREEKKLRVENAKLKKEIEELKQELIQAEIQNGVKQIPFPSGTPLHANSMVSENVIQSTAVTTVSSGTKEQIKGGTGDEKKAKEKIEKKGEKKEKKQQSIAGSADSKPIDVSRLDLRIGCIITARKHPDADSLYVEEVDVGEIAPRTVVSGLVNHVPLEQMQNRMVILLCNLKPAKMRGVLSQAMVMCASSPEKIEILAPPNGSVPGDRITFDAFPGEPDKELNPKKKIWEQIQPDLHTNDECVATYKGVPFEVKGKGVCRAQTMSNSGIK


Legend:
[1] = biological target: T1, AIMP1/p43 natively expressed in human …; assay: western blot on HeLa cell lysate, periplasmic scFv, anti-HA-HRP detection
[2] = biological target: T8, Seryl-tRNA synthetase (SRS) (UniProt P49591 1-514, limits assumed); assay: Luminex multiplex bead assay, antigen-coupled beads, anti-HA-biotin and SA-PE detection
T8 construct: Recombinant antigen, purity above 90%, coupled to a Luminex bead; also called 세릴-tRNA 합성효소
T8 sequence (P49591 whole entry): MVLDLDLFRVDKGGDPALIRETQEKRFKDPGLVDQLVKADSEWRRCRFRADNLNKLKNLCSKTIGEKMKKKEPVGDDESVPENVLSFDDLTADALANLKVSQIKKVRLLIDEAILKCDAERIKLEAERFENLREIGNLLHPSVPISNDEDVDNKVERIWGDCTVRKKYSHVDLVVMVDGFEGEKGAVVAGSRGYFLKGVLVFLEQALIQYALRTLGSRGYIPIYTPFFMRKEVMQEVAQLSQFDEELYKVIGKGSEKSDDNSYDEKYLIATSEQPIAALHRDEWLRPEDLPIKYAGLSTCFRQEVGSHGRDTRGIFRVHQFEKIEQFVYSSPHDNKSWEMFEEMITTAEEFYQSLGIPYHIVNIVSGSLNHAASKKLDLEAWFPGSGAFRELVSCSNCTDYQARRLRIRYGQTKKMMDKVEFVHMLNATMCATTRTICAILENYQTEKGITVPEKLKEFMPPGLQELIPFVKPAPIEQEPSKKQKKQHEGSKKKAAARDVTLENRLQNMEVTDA

[3] = biological target: T9, Lysyl-tRNA synthetase (KRS) (UniProt Q15046 1-597, limits assumed); assay: as above
T9 construct: Recombinant antigen, purity above 90%, coupled to a Luminex bead; also called 리실-tRNA 합성효소
T9 sequence (Q15046 whole entry): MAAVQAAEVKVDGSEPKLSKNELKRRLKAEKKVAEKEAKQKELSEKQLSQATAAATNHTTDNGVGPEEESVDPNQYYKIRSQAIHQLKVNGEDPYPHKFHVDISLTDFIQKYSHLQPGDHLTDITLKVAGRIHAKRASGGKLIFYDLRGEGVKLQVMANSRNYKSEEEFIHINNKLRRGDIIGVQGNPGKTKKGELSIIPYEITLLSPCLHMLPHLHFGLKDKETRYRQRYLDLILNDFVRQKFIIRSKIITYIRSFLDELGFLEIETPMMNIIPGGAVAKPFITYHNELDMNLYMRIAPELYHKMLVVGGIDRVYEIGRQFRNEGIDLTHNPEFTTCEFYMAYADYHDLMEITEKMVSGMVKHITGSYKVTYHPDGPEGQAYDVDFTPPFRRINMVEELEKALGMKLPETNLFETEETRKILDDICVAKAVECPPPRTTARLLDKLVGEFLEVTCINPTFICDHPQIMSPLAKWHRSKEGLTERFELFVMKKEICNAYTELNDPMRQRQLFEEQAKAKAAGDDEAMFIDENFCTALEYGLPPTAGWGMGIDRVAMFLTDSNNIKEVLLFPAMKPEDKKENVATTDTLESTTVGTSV

[4] = biological target: T2, Tyrosyl-tRNA synthetase (YRS); assay: as above
[5] = biological target: T3, Tryptophanyl-tRNA synthetase (WRS); assay: as above
[6] = biological target: T4, Asparaginyl-tRNA synthetase (NRS); assay: as above
[7] = biological target: T5, Histidyl-tRNA synthetase (HRS); assay: as above
[8] = biological target: T6, Glycyl-tRNA synthetase (GRS); assay: as above
[9] = biological target: T7, recombinant AIMP1/p43 (ARS-interacting …); assay: SPR (ProteOn XPR36), AIMP1/p43 amine-coupled on GLC chip, scFv 200-25 nM as analyte, 25°C

Binder | binding result [1] | binding result [2] | binding result [3] | binding result [4] | binding result [5] | binding result [6] | binding result [7] | binding result [8] | binding result [9]
anti-AIMP1/p43 scFv Biocon-AM1-1 (scFv, Expressed from pComb3X in the E. coli periplasm; also called antibody i)) scFv: EVQLLEFLGEGLVQPGGSLRLSCAASGFTFSSYDMSWVRQAPGKGLEWVSVISSDGGSTYYADSVRGRFTISRDNSKNTLYLQMNSLRAEDTAVYYCAKDVMKTGTLVFDYWGQGTLVTVSSGGGGSGGGGSGGGGSQSVLTQPPSASGTPGQRVTISCSGSSSNIGSNDVSWYQQLPGTAPKLLIYADSKRPSGVPDRFSGSKSGTSASLAISGLRSEDEADYYCGSWDDSLSGYVFGGGTKLTVL | binds | no binding | no binding | no binding | no binding | no binding | no binding | no binding | binds
anti-AIMP1/p43 scFv Biocon-AM1-2 (scFv, Expressed from pComb3X in the E. coli periplasm; also called antibody ii)) scFv: EVQLLESGGGLVQPGGSLRLSCAASGFTFSNYDMSWVRQAPGKGLEWVSSIYPNGSSKYYADSVKGRFTISRDNSKNTLYLQMNSLRAEDTAVYYCARDVLLCISMRCYYADGMDVWGQGTLVTVSSGGGGSGGGGSGGGGSQSVLTQPPSASGTPGQRVTISCSGSSSNIGNNAVNWYQQLPGTAPKLLIYANSHRPSGVPDRFSGSQSGTSASLAISGLRSEDEADYYCGSWDSSLNGYVFGGGTKLTVL | binds | no binding | no binding | no binding | no binding | no binding | no binding | no binding | binds

— KR20150078472A (dated 2015)
